These results are taken from article PMC9239988 (Nature Communications, 2022).

The target of assay [1] is Tick-borne encephalitis virus (TBEV) soluble envelope protein E (sE) (Tick-borne encephalitis virus, strain Neudoerfl). Nature of the assay: SEC-MALS. For orientation: In gel filtration, larger molecules generally elute earlier.
Assay [2] shares this target. The assay is described as follows: crystal structure.
Assay [3] concerns the target TBEV prMe-linker-sE single-chain protein (tick-borne encephalitis virus strain Neudoerfl) (UniProt P14336). Nature of the assay: crystal structure; uncleaved single-chain prMe-linker-sE; PDB 7QRF.
Assay [4] concerns the target TBEV prMe-linker-sE single-chain construct (Tick-borne encephalitis virus, strain Neudoerfl). The assay is described as follows: crystal structure; prMe-linker-sE single chain, crystallisation pH 3.5, PDB 7QRF.

As a reminder, the stoichiometry N is a count of units in the complex or per binding partner.

For the substance “Tick-borne encephalitis virus (TBEV) soluble envelope protein E (sE) (domain or fragment)”, the stoichiometry N in assay [1] and in assay [2] was 2 each time.

In the case of “TBEV prMe-linker-sE single-chain protein (from UniProt P14336 2-401)”, the stoichiometry N in assay [3] was 2.

In turn, “TBEV prMe-linker-sE single-chain construct” came in with a stoichiometry N in assay [4] of 2.
